Measurements: PMC6192581 (2018)
Read-outs that look alike come from different tables or passages of the source.

Assays:
[1] = biological target: T1, LDL (apolipoprotein B-100) (Homo sapiens, UniProt P04114)
[2] = biological target: T1, LDL (apolipoprotein B-100); remark: listed apart in the source

- Kd [1]: 0.58 nM
- Kd [2]: 7.01 nM
B1: LDL receptor 1-789 (protein)
chain: not shown
